Experimental data as given in article PMC7849165 (The EMBO Journal, 2020).
No end group written: not given here.

Molecular target: T1, N-terminal cytosolic domain of Sec62 (Sec62 domain; residues 18-145) (S. cerevisiae, UniProt P21825 18-145)
T1 sequence (looked up): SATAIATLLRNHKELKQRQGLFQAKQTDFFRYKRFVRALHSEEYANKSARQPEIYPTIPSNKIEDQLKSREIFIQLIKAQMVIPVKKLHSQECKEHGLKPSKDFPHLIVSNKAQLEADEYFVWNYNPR
Test: pull-down

binding result: binds
B1: Sec63-C1 peptide (residues 621-647 of Sec63), biotin-labeled (peptide, UniProt P14906 621-647, looked up)
peptide: VYSEEDDEYSTDDDETESDDESDASDY
modifications: also: biotin label, position not given here
